The values that follow come from US20130108658A1 (published 2013).

The target of experiment [1] is AAV-amyloid-453-587 (AAV2; human) (UniProt P03135).
For experiment [2], the target named is T1, purified αvβ3 integrin (CHEMICON) (UniProt P06756 31-1048; P05106 27-788).
T1 construct: also called soluble αvβ3; soluble receptor αvβ3
In words: A20-capture ELISA, purified αvβ3 integrin 100 ng/well, normalised to A20-biot. In general terms: An ELISA detects its analyte on a solid surface through an enzyme-linked reagent.

T1 sequence (P06756 31-1048, chain 1 of 2): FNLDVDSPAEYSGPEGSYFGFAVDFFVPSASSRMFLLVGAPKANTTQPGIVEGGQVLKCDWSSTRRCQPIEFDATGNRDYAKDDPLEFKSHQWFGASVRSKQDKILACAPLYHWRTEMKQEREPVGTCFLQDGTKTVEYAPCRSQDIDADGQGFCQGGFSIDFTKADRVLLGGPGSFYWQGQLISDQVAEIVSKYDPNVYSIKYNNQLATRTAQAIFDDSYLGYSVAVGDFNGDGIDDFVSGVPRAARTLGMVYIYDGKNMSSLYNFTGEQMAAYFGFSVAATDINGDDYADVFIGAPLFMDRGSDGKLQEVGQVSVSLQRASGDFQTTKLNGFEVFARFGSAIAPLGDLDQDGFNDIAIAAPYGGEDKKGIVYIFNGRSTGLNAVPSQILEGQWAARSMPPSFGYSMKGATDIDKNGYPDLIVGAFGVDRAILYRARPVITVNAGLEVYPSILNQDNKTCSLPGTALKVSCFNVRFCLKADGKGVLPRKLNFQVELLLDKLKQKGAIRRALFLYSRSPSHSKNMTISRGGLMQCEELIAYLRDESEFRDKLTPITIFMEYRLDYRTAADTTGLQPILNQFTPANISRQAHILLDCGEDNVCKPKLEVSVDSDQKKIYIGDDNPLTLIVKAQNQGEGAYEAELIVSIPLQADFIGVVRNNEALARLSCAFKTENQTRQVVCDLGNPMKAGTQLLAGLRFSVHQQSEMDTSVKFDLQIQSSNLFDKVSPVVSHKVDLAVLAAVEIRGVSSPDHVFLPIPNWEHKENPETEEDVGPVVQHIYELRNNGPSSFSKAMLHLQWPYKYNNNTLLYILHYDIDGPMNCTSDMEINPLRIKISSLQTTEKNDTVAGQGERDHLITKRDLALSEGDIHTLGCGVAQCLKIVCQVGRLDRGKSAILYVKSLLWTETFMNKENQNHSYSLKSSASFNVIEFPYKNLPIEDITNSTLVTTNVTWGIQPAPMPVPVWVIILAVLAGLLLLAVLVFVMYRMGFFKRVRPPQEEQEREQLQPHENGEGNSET
T1 sequence (P05106 27-788, chain 2 of 2): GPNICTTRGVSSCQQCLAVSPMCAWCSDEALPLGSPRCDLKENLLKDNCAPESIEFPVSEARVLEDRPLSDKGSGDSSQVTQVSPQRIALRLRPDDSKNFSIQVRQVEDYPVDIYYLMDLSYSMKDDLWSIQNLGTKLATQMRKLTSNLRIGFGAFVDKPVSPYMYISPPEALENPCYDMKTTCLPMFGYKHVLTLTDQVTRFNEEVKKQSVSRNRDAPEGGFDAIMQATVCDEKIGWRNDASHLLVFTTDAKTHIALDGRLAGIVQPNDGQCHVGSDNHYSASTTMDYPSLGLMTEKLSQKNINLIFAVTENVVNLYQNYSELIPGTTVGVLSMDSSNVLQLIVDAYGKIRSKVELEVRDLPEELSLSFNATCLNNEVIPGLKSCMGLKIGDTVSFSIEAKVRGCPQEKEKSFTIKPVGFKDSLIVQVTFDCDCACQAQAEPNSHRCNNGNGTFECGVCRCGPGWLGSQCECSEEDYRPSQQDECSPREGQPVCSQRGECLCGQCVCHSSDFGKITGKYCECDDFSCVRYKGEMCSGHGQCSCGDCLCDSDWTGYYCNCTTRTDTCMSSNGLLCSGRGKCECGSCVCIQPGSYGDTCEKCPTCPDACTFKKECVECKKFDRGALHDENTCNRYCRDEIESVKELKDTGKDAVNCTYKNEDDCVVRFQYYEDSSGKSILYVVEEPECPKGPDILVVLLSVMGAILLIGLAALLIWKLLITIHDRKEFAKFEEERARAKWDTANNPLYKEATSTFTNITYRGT

In experiment [1], “anti-β-amyloid mAb 6E10 (CHEMICON) (antibody)” returned a fold higher affinity against the I-587-insertion mutant of 2 fold.

B1: AAV2 RGD4C 453 A2 (other)
chain: MAADGYLPDWLEDTLSEGIRQWWKLKPGPPPPKPAERHKDDSRGLVLPGYKYLGPFNGLDKGEPVNEADAAALEHDKAYDRQLDSGDNPYLKYNHADAEFQERLKEDTSFGGNLGRAVFQAKKRVLEPLGLVEEPVKTAPGKKRPVEHSPVEPDSSSGTGKAGQQPARKRLNFGQTGDADSVPDPQPLGQPPAAPSGLGTNTMATGSGAPMADNNEGADGVGNSSGNWHCDSTWMGDRVITTSTRTWALPTYNNHLYKQISSQSGASNDNHYFGYSTPWGYFDFNRFHCHFSPRDWQRLINNNWGFRPKRLNFKLFNIQVKEVTQNDGTTTIANNLTSTVQVFTDSEYQLPYVLGSAHQGCLPPFPADVFMVPQYGYLTLNNGSQAVGRSSFYCLEYFPSQMLRTGNNFTFSYTFEDVPFHSSYAHSQSLDRLMNPLIDQYLYYLSRTNTPSGACDCRGDCFCATTTQSRLQFSQAGASDIRDQSRNWLPGPCYRQQRVSKTSADNNNSEYSWTGATKYHLNGRDSLVNPGPAMASHKDDEEKFFPQSGVLIFGKQGSEKTNVDIEKVMITDEEEIRTTNPVATEQYGSVSTNLQAGNAQAATADVNTQGVLPGMVWQDRDVYLQGPIWAKIPHTDGHFHPSPLMGGFGLKHPPPQILIKNTPVPANPSTTFSAAKFASFITQYSTGQVSVEIEWELQKENSKRWNPEIQYTSNYNKSVNVDFTVDTNGVYSEPRPIGTRYLTRNL
notes: Capsid particle of VP-1, VP-2 and VP-3; substitution positions count on wild-type AAV2 VP-1
B1: in experiment [2], the “fold increase of binding activity against RGD4C 453” value is approximately 50 fold.
